Reference: PMC4509788 (Molecular cell, 2010)
Each block holds one binder with its values, some of them ahead of it.

Columns and labels:
[1] = biological target: T1, GST-MAGE-G1 (human, UniProt Q96MG7 1-304); test: pull-down
T1 sequence (looked up): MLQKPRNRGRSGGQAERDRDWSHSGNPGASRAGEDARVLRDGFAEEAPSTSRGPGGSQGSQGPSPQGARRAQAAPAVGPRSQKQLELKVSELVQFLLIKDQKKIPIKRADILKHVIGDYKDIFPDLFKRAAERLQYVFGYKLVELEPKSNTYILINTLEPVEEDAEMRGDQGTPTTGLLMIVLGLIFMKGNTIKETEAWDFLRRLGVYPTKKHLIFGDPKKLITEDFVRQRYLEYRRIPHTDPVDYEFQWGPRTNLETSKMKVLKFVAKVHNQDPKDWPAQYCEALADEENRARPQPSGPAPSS

[2] = biological target: T2, MAGE-G1 (full length, coexpressed with NSE1) (human, UniProt Q96MG7 1-304); test: co-purification after coexpression in bacteria
T2 sequence (looked up): T1 sequence (looked up)

binding result [1]: binds
B1: NSE1 (purified recombinant) (natural protein, UniProt Q8WV22 1-266, looked up)
chain: MQGSTRRMGVMTDVHRRFLQLLMTHGVLEEWDVKRLQTHCYKVHDRNATVDKLEDFINNINSVLESLYIEIKRGVTEDDGRPIYALVNLATTSISKMATDFAENELDLFRKALELIIDSETGFASSTNILNLVDQLKGKKMRKKEAEQVLQKFVQNKWLIEKEGEFTLHGRAILEMEQYIRETYPDAVKICNICHSLLIQGQSCETCGIRMHLPCVAKYFQSNAEPRCPHCNDYWPHEIPKVFDPEKERESGVLKSNKKSLRSRQH

binding result [2]: binds
B2: NSE1 (full length, coexpressed with MAGE-G1) (natural protein, UniProt Q8WV22 1-266, looked up)
chain: B1 chain
